B1: Alp7A-GFP fusion protein (OrfB of Bacillus subtilis natto plasmid pLS20 with C-terminal GFP) (other)
chain: MNISRMNVDFGNSMYMNLIDGYFFELPTNVVEISKEAAEGKFTSIVEDPADLKDRLLVSTVIDETERYFLVGELAEPEVLGNQHIKKLHNKVESHIPYVTFLAATAYYQALKGKREDNEVTIEYFQTMLPIWLLKKLDKFSEMQKRMASKFLGTHQVKVLTLGLEKELTIKVEDAACRIESEVARWAIKKNFDLEDKDYAEQFKNYDVVFCDLGGGTDDLVLLPAGLKPPKSRDSFVSNTEAPFLAHLEKLRKEKLLEHFDSVRELEKFIYSNIGKTKMERRDGNTGQKFDLTDIIKKSLKEYTEIKIAQAENTFPAPKDKVYKYLYFGGVGEVLEESISVVTEERYGRDISESNHIVAEDARLLNLYGLEVLSRAEQVKKQANEKEAQSI
notes: Observed inside living or fixed E. coli and B. subtilis cells; Not a purified protein; also called pLS20 OrfB; not shown: C-terminal GFP from plasmid pMUTIN-GFP+
B2: Alp8A-GFP fusion protein (Orf250 of Proteus vulgaris plasmid Rts1 fused to GFP) (other)
chain: MELLRKGRSFGGLFLIKGKVMNQSERFIVGLDIGYSNVKVACGGTQLLDPKVTIFPAYATPEPESDLALAKKSPDEVKVYPNGTEWRVFTNRVGHRELHESYHSTEMYKALFYGALIKATEGRSDVIDILVTGLPVRIANSEADRSQLCESFTGKHEVTPGRFILVKEVVVLSQGVGIMNDILNTEGLISDEDLEFSNILVIDPGYYSMDYVTFHRGDKKNEFSGSSLNATSVIIEEIVRVLERDYPKEGAQETERIETALRLGNKTFNNGFRSVEIEPLIEEVSHRIVSSVVAELLKRTRSIGPVHIIISAGGGARFYDHFIKEAFPQARILQSVNPVASNSIGYWHYGVNKLSSQSD
notes: Produced in E. coli TOP10 from pEB400; also called Rts1 orf250; pPtrcalp8A-gfp product; not shown: GFP from plasmid pDSW210
B3: Alp7A(E180A)-GFP (other)
chain: MNISRMNVDFGNSMYMNLIDGYFFELPTNVVEISKEAAEGKFTSIVEDPADLKDRLLVSTVIDETERYFLVGELAEPEVLGNQHIKKLHNKVESHIPYVTFLAATAYYQALKGKREDNEVTIEYFQTMLPIWLLKKLDKFSEMQKRMASKFLGTHQVKVLTLGLEKELTIKVEDAACRIASEVARWAIKKNFDLEDKDYAEQFKNYDVVFCDLGGGTDDLVLLPAGLKPPKSRDSFVSNTEAPFLAHLEKLRKEKLLEHFDSVRELEKFIYSNIGKTKMERRDGNTGQKFDLTDIIKKSLKEYTEIKIAQAENTFPAPKDKVYKYLYFGGVGEVLEESISVVTEERYGRDISESNHIVAEDARLLNLYGLEVLSRAEQVKKQANEKEAQSI
notes: Observed in B. subtilis PY79 cells; also called mini-pLS20alp7A(E180A)-gfp product; not shown: C-terminal GFP from plasmid pMUTIN-GFP+
B4: Alp7A(D212A)-GFP (other)
chain: MNISRMNVDFGNSMYMNLIDGYFFELPTNVVEISKEAAEGKFTSIVEDPADLKDRLLVSTVIDETERYFLVGELAEPEVLGNQHIKKLHNKVESHIPYVTFLAATAYYQALKGKREDNEVTIEYFQTMLPIWLLKKLDKFSEMQKRMASKFLGTHQVKVLTLGLEKELTIKVEDAACRIESEVARWAIKKNFDLEDKDYAEQFKNYDVVFCALGGGTDDLVLLPAGLKPPKSRDSFVSNTEAPFLAHLEKLRKEKLLEHFDSVRELEKFIYSNIGKTKMERRDGNTGQKFDLTDIIKKSLKEYTEIKIAQAENTFPAPKDKVYKYLYFGGVGEVLEESISVVTEERYGRDISESNHIVAEDARLLNLYGLEVLSRAEQVKKQANEKEAQSI
notes: Observed in B. subtilis PY79 cells; also called mini-pLS20alp7A(D212A)-gfp product; not shown: C-terminal GFP from plasmid pMUTIN-GFP+

Legend:
[1] = target: the molecule itself; experiment: self-assembly into filaments, GFP fluorescence microscopy in E. coli
[2] = target: the molecule itself; experiment: self-assembly into filaments, GFP fluorescence microscopy, time-lapse and FRAP in B. subtilis
[3] = target: the molecule itself; experiment: GFP fluorescence microscopy in B. subtilis (self-assembly into filaments)

Row | Protein | binding result [1] | further results
1 | B1 | binds | 
2 | B2 | binds | 
3 | B3 |  | binding result [2]: binds
4 | B4 |  | binding result [3]: no binding

From patent publication US20120184019A1 (University of California, published 2012)
